The chains are these.
B1: MIA2 (parent)
chain: NSISSDKEATVPCTEILTEKKDTI

This is an account of results in the supplement of paper PMC10567573.
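Note: lentivirally expressed fusions sorted by FACS into six bins by GFP to DsRed ratio, PSI derived from sequencing read proportions per bin multiplied by bin number.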

The variants in the series derive from B1. The experiment in a line: protein stability index of a GFP-peptide fusion (GPS, HEK-293T) (PSI 1-6); higher = more stable. The following applies: c terminus: a fixed tail appended.
Turning to NSISSDKEATVPCTEILTEKKATI, the protein stability index was found to be 5.35.
The figure for NSISSDKEATVPCTEILTEKKVTI is 4.31; for NSISSDKEATVPCTEILTEKKRTI it is 4.89.
Next, NSISSDKEATVPCTEILTEKKHTI: 4.94; NSISSDKEATVPCTEILTEKKYTI: 4.53.
The figure for NSISSDKEATVPCTEILTEKKQTI is 5.11.
Consider NSISSDKEATVPCTEILTEKKKTI, for which the protein stability index was determined as 5.16.
Next, NSISSDKEATVPCTEILTEKKNTI: 5.21; NSISSDKEATVPCTEILTEKKWTI: 3.49; NSISSDKEATVPCTEILTEKKITI: 4.55.
The figure for NSISSDKEATVPCTEILTEKKTTI is 5.04; for NSISSDKEATVPCTEILTEKKSTI it is 4.7.
As to NSISSDKEATVPCTEILTEKKFTI, the protein stability index stood at 4.5.
Next, NSISSDKEATVPCTEILTEKKPTI: 5.43.
Next, NSISSDKEATVPCTEILTEKKMTI: 4.62; NSISSDKEATVPCTEILTEKKCTI: 4.97.
The figure for NSISSDKEATVPCTEILTEKKETI is 5.6.
NSISSDKEATVPCTEILTEKKGTI: the protein stability index came out at 5.33.
With NSISSDKEATVPCTEILTEKNDTI, the protein stability index turned out to be 5.48.
The figure for NSISSDKEATVPCTEILTEKLDTI is 5.42; for NSISSDKEATVPCTEILTEKADTI it is 5.37.
Turning to NSISSDKEATVPCTEILTEKSDTI, the protein stability index came to 5.37.
Next, NSISSDKEATVPCTEILTEKWDTI: 4.59.
Next, NSISSDKEATVPCTEILTEKVDTI: 5.1; NSISSDKEATVPCTEILTEKYDTI: 4.84.
Next, NSISSDKEATVPCTEILTEKTDTI: 5.51.
As to NSISSDKEATVPCTEILTEKDDTI, the protein stability index amounted to 5.72.
Next, NSISSDKEATVPCTEILTEKFDTI: 5.07; NSISSDKEATVPCTEILTEKQDTI: 5; NSISSDKEATVPCTEILTEKHDTI: 5.15.
The figure for NSISSDKEATVPCTEILTEKMDTI is 5.7; for NSISSDKEATVPCTEILTEKCDTI it is 5.27; for NSISSDKEATVPCTEILTEKIDTI it is 5.14.
The figure for NSISSDKEATVPCTEILTEKGDTI is 5.16.
Consider NSISSDKEATVPCTEILTEKRDTI, for which the protein stability index is 5.39.
The figure for NSISSDKEATVPCTEILTEKPDTI is 5.36; for NSISSDKEATVPCTEILTEKEDTI it is 5.69.
Next, NSISSDKEATVPCTEILTEKKDYI: 5.1; NSISSDKEATVPCTEILTEKKDWI: 4.17; NSISSDKEATVPCTEILTEKKDCI: 5.46.
Consider NSISSDKEATVPCTEILTEKKDFI, for which the protein stability index was determined as 4.83.
Next, NSISSDKEATVPCTEILTEKKDKI: 5.54; NSISSDKEATVPCTEILTEKKDQI: 5.55.
The figure for NSISSDKEATVPCTEILTEKKDLI is 5.37; for NSISSDKEATVPCTEILTEKKDSI it is 5.47.
Next, NSISSDKEATVPCTEILTEKKDDI: 5.17.
For the variant NSISSDKEATVPCTEILTEKKDAI, the protein stability index was determined as 5.55.
In the case of NSISSDKEATVPCTEILTEKKDHI, the protein stability index came to 5.3.
Next, NSISSDKEATVPCTEILTEKKDPI: 5.65; NSISSDKEATVPCTEILTEKKDRI: 5.13; NSISSDKEATVPCTEILTEKKDMI: 5.33.
Next, NSISSDKEATVPCTEILTEKKDNI: 5.24; NSISSDKEATVPCTEILTEKKDII: 5.09; NSISSDKEATVPCTEILTEKKDVI: 5.32.
Next, NSISSDKEATVPCTEILTEKKDEI: 5.61; NSISSDKEATVPCTEILTEKKDGI: 5.5.
On to NSISSDKEATVPCTEILTEMKDTI, for which the protein stability index worked out at 5.35.
Next, NSISSDKEATVPCTEILTESKDTI: 5.54.
For the variant NSISSDKEATVPCTEILTEEKDTI, the protein stability index amounted to 5.53.
In the case of NSISSDKEATVPCTEILTEGKDTI, the protein stability index was 5.47.
Next, NSISSDKEATVPCTEILTELKDTI: 4.94; NSISSDKEATVPCTEILTEAKDTI: 5.34.
As for NSISSDKEATVPCTEILTEYKDTI, the protein stability index is 4.75.
With NSISSDKEATVPCTEILTEWKDTI, the protein stability index amounted to 4.54.
The figure for NSISSDKEATVPCTEILTEHKDTI is 5.42.
Next, NSISSDKEATVPCTEILTEIKDTI: 5.15; NSISSDKEATVPCTEILTEDKDTI: 5.68.
On to NSISSDKEATVPCTEILTEQKDTI, for which the protein stability index is 5.39.
The figure for NSISSDKEATVPCTEILTETKDTI is 5.48.
On to NSISSDKEATVPCTEILTERKDTI, for which the protein stability index came out at 5.17.
The figure for NSISSDKEATVPCTEILTEVKDTI is 5.31; for NSISSDKEATVPCTEILTEFKDTI it is 4.64; for NSISSDKEATVPCTEILTECKDTI it is 5.25.
Next, NSISSDKEATVPCTEILTEPKDTI: 5.3.
On to NSISSDKEATVPCTEILTENKDTI, for which the protein stability index worked out at 5.53.
The figure for NSISSDKEATVPCTEILTEKKDTC is 5.68; for NSISSDKEATVPCTEILTEKKDTV it is 5.63; for NSISSDKEATVPCTEILTEKKDTD it is 5.72.
The figure for NSISSDKEATVPCTEILTEKKDTE is 5.81.
Next, NSISSDKEATVPCTEILTEKKDTN: 5.7; NSISSDKEATVPCTEILTEKKDTY: 5.36; NSISSDKEATVPCTEILTEKKDTW: 5.32.
As for NSISSDKEATVPCTEILTEKKDTK, the protein stability index is 5.35.
Next, NSISSDKEATVPCTEILTEKKDTM: 5.52; NSISSDKEATVPCTEILTEKKDTS: 5.69.
Turning to NSISSDKEATVPCTEILTEKKDTA, the protein stability index is 5.66.
Next, NSISSDKEATVPCTEILTEKKDTR: 5.36; NSISSDKEATVPCTEILTEKKDTG: 5.56; NSISSDKEATVPCTEILTEKKDTF: 5.33.
The figure for NSISSDKEATVPCTEILTEKKDTH is 5.45; for NSISSDKEATVPCTEILTEKKDTT it is 5.67; for NSISSDKEATVPCTEILTEKKDTP it is 5.66.
With NSISSDKEATVPCTEILTEKKDTL, the protein stability index is 5.32.
The figure for NSISSDKEATVPCTEILTEKKDTQ is 5.61.
